Experimental data taken from patent US20220380801A1, “TRIPARTITE SYSTEMS FOR PROTEIN DIMERIZATION AND METHODS OF USE” (priority 2019, published 2022).

Tested on: luciferase gene expression in HEK293 cells
Assay: AAV transduction, inducible luciferase transgene in trans
Type: cell-based, human
Details: two separate AAV8 preparations, simeprevir
Excerpt: AAV expression vectors were generated by subcloning specific promoter and transgene elements into an intermediate vector derived from pAAV-CMV (Takara) in which the CMV promoter downstream of the 5′ITR was removed and a WPRE element and SV40 polyA sequence were inserted upstream of the 3′ ITR.
To generate AAV encoding an inducible luciferase transgene, the ZHFD1-luciferase cassette was amplified by PCR from pZFHD1-Luciferase provided in the iDimerize regulated transcription system (Takara) and subcloned into the intermediate AAV vector. […]
Recombinant AAV (rAAV) was produced by triple-transfection of 40 T-175 cm^2 flasks containing HEK293 T-17 cells at 80% confluency using a standard helper-free approach. […] Fractions were taken from the ultraclear centrifuge tubes by piercing the tube with a 19 gauge syringe in the 60% layer below the clear band representing the virus and the purity of each fraction was assessed by SDS-PAGE of each fraction and subsequent Sypro Ruby analysis. […]
All rAAV transduction assays were performed in adherent HEK293 cells cultured in 96-well plates. Cells enzymatically dissociated from a tissue culture flask were counted and plated at 2.5×10^4 cells/well in a 96-well plate. […] For luminescence assays, SteadyGlo luciferase substrate (Promega) was added and luminescence was quantified with an Envision plate reader. […]

B1: PRSIM_23: Tn3 protein specific for HCV NS3/4A PR (S139A):simeprevir complex, SEQ ID NO: 5 (protein)
chain: RLDAPSQIEVKDVTDTTALITWVDPRYDDIWWFELTYGIKDVPGDRTTIKLYLNDPYYSIGNLKPDTEYEVSLISYTGDSYSRSGSNPAKITFKTGL
modifications: PRSIM_23
  induction of luciferase activity: 228 fold
